Values of other authors, collected in US11097005B2, “Use of cadherin-11 antagonists to treat metabolic disorders and/or increase insulin sensitivity” (The Brigham and Women's Hospital, Inc., priority 2014, dated 2021).

Settings: ob/ob mice; IL-33 administration

B1: IL-33: cytokine, ST2 ligand; administration to ob/ob mice cited from literature (protein, UniProt Q8BVZ5 1-266, looked up)
Interleukin-33: MRPRMKYSNSKISPAKFSSTAGEALVPPCKIRRSQQKTKEFCHVYCMRLRSGLTIRKETSYFRKEPTKRYSLKSGTKHEENFSAYPRDSRKRSLLGSIQAFAASVDTLSIQGTSLLTQSPASLSTYNDQSVSFVLENGCYVINVDDSGKDQEQDQVLLRYYESPCPASQSGDGVDGKKLMVNMSPIKDTDIWLHANDKDYSVELQRGDVSPPEQAFFVLHKKSSDFVSFECKNLPGTYIGVKDNQLALVEEKDESCNNIMFKLSKI
In the case of B1, the “accumulation of M2-macrophages in adipose tissue” value is given as “improve” and the glucose tolerance is given as “improve”.
